Measured values as given in paper PMC6776259 (PLoS Pathogens, 2019).

Biological target: the molecule itself
Assay: split reporter (BiFC, NanoBiT)

B1: WSN FluPol heterotrimer in cells infected with recombinant WSN viruses expressing PB1-Gluc1 and PB1-Gluc2 (complex)
chain 1: MDVNPTLLFLKVPAQNAISTTFPYTGDPPYSHGTGTGYTMDTVNRTHQYSERGRWTTNTETGAPQLNPIDGPLPEDNEPSGYAQTDCVLEAMAFLEESHPGIFETSCLETMEVVQQTRVDKLTQGRQTYDWTLNRNQPAATALANTIEVFRSNGLTANESGRLIDFLKDVMESMNKEEMEITTHFQRKRRVRDNMTKKMVTQRTIGKRKQRLNKRSYLIRALTLNTMTKDAERGKLKRRAIATPGMQIRGFVYFVETLARSICEKLEQSGLPVGGNEKKAKLANVVRKMMTNSQDTEISFTITGDNTKWNENQNPRMFLAMITYITRNQPEWFRNVLSIAPIMFSNKMARLGKGYMFESKSMKIRTQIPAEMLASIDLKYFNDSTRKKIEKIRPLLIDGTASLSPGMMMGMFNMLSTVLGVSILNLGQKRHTKTTYWWDGLQSSDDFALIVNAPNHEGIQAGVNRFYRTCKLLGINMSKKKSYINRTGTFEFTSFFYRYGFVANFSMELPSFGVSGINESADMSIGVTVIKNNMINNDLGPATAQMALQLFIKDYRYTYRCHRGDTQIQTRRSFEIKKLWEQTHSKAGLLVSDGGPNLYNIRNLHIPEVCLKWELMDEDYQGRLCNPLNPFVNHKDIESVNNAVIMPAHGPAKNMEYDAVATTHSWIPKRNRSILNTSQRGILEDEQMYQKCCNLFEKFFPSSSYRRPVGISSMVEAMVSRARIDARIDFESGRIKKEEFTEIMKICSTIEELRRQK
chain 2: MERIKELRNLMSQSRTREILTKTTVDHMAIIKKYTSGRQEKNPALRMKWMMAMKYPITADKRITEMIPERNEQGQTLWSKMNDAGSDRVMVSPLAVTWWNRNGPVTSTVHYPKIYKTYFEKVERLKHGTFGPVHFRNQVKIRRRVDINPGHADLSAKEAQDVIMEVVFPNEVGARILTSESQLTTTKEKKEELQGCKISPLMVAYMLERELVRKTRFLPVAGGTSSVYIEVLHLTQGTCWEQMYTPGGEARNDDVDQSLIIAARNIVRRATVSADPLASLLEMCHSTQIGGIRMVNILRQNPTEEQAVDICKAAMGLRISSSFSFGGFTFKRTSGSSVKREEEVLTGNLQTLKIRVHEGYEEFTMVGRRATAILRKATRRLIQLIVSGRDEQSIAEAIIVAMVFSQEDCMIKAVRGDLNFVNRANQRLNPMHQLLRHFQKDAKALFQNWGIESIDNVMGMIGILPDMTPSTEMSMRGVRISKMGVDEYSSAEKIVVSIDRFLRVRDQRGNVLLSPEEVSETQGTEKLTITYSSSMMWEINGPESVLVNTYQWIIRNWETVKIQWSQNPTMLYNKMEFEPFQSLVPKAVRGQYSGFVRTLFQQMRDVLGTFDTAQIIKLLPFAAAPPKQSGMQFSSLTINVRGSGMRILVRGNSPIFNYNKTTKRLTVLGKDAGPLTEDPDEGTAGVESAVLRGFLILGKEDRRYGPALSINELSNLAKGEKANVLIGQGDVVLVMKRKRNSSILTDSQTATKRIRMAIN
chain 3: […]
notes: copies: + +
  luciferase activity, fold over background: > 1000 fold over background
